Values of other authors in publication PMC3491057, “Proliferating Cell Nuclear Antigen (PCNA) Interactions in Solution Studied by NMR” (PLoS ONE, 2012).

Target: T1, human PCNA (Homo sapiens, UniProt P12004)
T1 construct: His6 tag with PreScission protease cleavage site (N, cleaved yes); made in house; host or cells: E. coli
Conditions: PIP-box fragments
Description: The CDK inhibitor p21 mediates the cellular response to DNA damage by arresting the cell cycle at the G1 phase, inhibiting the progression into the S phase and thus DNA replication. It is an intrinsically disordered protein with an N-terminal sequence similar to other CDK-inhibitory proteins (including p27^Kip1, p57^Kip2, and p27^XIC1) and a C-terminal region containing a PIP-box. […] The smallest p21 fragment still competing with p21^20 ... || We have characterized the thermodynamics of the p21^20 and p21^12 peptides binding to PCNA by Isothermal Titration Calorimetry (ITC) in the same buffer (PBS pH 7.0) and at the same temperature (35°C) as the NMR experiments described below (Figure 3 and Figure S2). To allow comparison with data in the literature for the p21^20 [34], ITC experiments were also carried out at 30°C.

T1 sequence (P12004 whole entry): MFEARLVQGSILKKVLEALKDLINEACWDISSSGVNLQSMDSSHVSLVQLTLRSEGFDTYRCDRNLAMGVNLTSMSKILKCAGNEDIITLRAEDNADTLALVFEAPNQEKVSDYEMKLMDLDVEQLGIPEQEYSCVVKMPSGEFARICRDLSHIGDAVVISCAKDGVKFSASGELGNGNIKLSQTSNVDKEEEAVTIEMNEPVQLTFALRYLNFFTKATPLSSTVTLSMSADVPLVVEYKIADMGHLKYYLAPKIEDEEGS

Row | Substance | Kd
1 | Fen-1^22: PIP-box fragment of Flap endonuclease 1 (SRQGSTQGRLDDFFKVTGSL) | 60 µM
2 | p66^22: PIP-box fragment of p66, subunit 3 of human replicative DNA polymerase-δ (POLD3) (KANRQVSITGFFQRK) | 1.5 µM
